# Assay results reported in patent US20230331817A1 (The Regents of the University of California, priority 2020, published 2023).
# Where no end group is shown, it is not given here.
# B1: KD1Y11T/R15K/L17R-KT (designed binder)
# chain: NAEICLLPLDTGPCKARLLRYYYDRYTQSCRQFLYGGCEGNANNFYTWEACDDACWRIEK
# modifications: ends and bridges not checked; cysteine pairing not given here
# notes: also called KD1TM; rHuKD1-TM
# What was measured:
# [1] = target: T1, human plasmin (human, UniProt P00747 97-810); experiment: plasmin amidolytic inhibition, sample kept at 4° C., Day 2
# T1 construct: Plasmin is a two-chain enzyme derived from plasminogen; also called Pm
# Description: (§1) Reactions were carried out in TBS/BSA and 2 mM calcium. […] Synthetic substrate for plasmin was then added to a final concentration of 1 KM, and residual amidolytic activity was measured in a kinetic microplate reader (Molecular Devices). […] Data are analyzed using an equation for a tight-binding inhibitor and Kᵢ values are obtained by correcting for the effect of substrate concentration.
# [2] = target: T1, human plasmin; experiment: plasmin amidolytic inhibition, sample kept at room temperature, Day 5
# Description: as §1
# [3] = target: T1, human plasmin; experiment: cell-based or functional assay
# [4] = target: T1, human plasmin; experiment: residual amidolytic activity of 3 nM human plasmin after incubation with the inhibitor (chromogenic substrate)
# [5] = target: T1, human plasmin; experiment: plasmin amidolytic inhibition, sample kept at room temperature, Day 4
# Description: as §1
# [6] = target: plasmin kringle domain (UniProt P00747); experiment: not stated (SPR implied)
# [7] = target: T1, human plasmin; experiment: plasmin amidolytic inhibition, sample kept at room temperature, Day 1
# Description: as §1
# [8] = target: T1, human plasmin; experiment: plasmin amidolytic inhibition, sample kept at 37° C., Day 3
# Description: as §1
# [9] = target: T1, human plasmin; experiment: plasmin amidolytic inhibition, sample kept at 4° C., Day 6
# Description: as §1
# [10] = target: T1, human plasmin; experiment: plasmin amidolytic inhibition, sample kept at room temperature, Day 2
# Description: as §1
# [11] = target: T1, human plasmin; experiment: plasmin amidolytic inhibition, sample kept at 37° C., Day 5
# Description: as §1
# [12] = target: T1, human plasmin; experiment: protease amidolytic inhibition, tight-binding equation
# [13] = target: T2, plasma kallikrein (human, UniProt P03952 20-638); experiment: as above
# T2 construct: also called pKLK; KLK
# [14] = target: T1, human plasmin; experiment: plasmin amidolytic inhibition, sample kept at 4° C., Day 5
# Description: as §1
# [15] = target: T1, human plasmin; experiment: plasmin amidolytic inhibition, sample kept at 37° C., Day 2
# Description: as §1
# [16] = target: T1, human plasmin; experiment: plasmin amidolytic inhibition, slow tight binding equation
# Description: as §1
# [17] = target: T3, factor VIIa/soluble tissue factor (human, UniProt P08709 61-466; P13726 33-251); experiment: protease amidolytic inhibition, against the 60 residue double mutant Y11T/L17R
# T3 construct: Complex of the enzyme FVIIa and its cofactor sTF, used at 20 nM; also called FVIIa/sTF; factor VIIa/tissue factor
# [18] = target: T4, factor XIa (human, UniProt P03951 19-625); experiment: as above
# T4 construct: also called FXIa
# [19] = target: T2, plasma kallikrein; experiment: as above
# [20] = target: T1, human plasmin; experiment: plasmin amidolytic inhibition, sample kept at 4° C., Day 4
# Description: as §1
# [21] = target: T1, human plasmin; experiment: plasmin amidolytic inhibition, sample kept at room temperature, Day 3
# Description: as §1
# [22] = target: T1, human plasmin; experiment: plasmin amidolytic inhibition, sample kept at 4° C., Day 3
# Description: as §1
# [23] = target: T1, human plasmin; experiment: plasmin amidolytic inhibition, sample kept at room temperature, Day 7
# Description: as §1
# [24] = target: T1, human plasmin; experiment: plasmin amidolytic inhibition, sample kept at 37° C., Day 7
# Description: as §1
# [25] = target: T1, human plasmin; experiment: plasmin amidolytic inhibition, sample kept at 37° C., Day 6
# Description: as §1
# [26] = target: T1, human plasmin; experiment: plasmin amidolytic inhibition, sample kept at 37° C., Day 1
# Description: as §1
# [27] = target: T1, human plasmin; experiment: plasmin amidolytic inhibition, sample kept at 4° C., Day 1
# Description: as §1
# [28] = target: T1, human plasmin; experiment: plasmin amidolytic inhibition, sample kept at 37° C., Day 4
# Description: as §1
# [29] = target: T1, human plasmin; experiment: plasmin amidolytic inhibition, sample kept at 4° C., Day 7
# Description: as §1
# [30] = target: T1, human plasmin; experiment: plasmin amidolytic inhibition, sample kept at room temperature, Day 6
# Description: as §1
# T1 sequence (P00747 97-810 limits assumed): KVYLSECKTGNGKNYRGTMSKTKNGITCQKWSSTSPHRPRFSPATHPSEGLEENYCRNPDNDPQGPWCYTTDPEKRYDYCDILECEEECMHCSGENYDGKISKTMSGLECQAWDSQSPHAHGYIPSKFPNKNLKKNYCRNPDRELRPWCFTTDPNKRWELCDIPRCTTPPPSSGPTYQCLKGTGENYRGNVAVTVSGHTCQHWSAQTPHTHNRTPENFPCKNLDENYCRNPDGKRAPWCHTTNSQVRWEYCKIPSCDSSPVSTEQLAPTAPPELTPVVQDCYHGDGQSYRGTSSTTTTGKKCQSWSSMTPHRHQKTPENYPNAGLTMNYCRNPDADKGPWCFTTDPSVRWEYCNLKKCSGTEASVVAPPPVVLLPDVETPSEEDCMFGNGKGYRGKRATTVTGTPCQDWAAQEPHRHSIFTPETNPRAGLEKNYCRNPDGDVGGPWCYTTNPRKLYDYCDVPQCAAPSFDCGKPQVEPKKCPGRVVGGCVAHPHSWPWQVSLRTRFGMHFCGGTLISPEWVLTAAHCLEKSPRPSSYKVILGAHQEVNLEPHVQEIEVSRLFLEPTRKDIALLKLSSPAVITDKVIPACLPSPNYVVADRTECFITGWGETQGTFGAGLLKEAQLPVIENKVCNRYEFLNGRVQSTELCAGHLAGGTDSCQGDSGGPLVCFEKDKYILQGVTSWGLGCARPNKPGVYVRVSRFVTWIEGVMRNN
# T2 sequence (P03952 20-638 limits assumed): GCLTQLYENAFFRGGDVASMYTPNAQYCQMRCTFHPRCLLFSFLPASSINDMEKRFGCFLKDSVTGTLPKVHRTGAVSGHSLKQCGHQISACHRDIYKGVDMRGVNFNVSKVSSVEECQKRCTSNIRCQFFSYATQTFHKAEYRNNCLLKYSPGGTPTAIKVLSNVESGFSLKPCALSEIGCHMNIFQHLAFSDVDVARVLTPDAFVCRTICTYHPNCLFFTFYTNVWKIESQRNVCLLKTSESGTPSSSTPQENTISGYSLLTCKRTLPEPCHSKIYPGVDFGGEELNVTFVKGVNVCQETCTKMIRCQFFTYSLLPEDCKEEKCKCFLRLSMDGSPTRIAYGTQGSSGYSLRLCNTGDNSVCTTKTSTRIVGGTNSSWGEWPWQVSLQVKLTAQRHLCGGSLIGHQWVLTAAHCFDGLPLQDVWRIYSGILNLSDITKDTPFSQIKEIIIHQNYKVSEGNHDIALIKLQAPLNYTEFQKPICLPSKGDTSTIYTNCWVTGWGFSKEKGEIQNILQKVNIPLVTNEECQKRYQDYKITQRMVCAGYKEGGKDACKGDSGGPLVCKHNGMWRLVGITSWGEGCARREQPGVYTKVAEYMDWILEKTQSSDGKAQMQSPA
binder,measurement,setting,value
B1,Ki,[1],0.13 nM
same,Ki,[2],0.14 nM
same,"TEG G, 2 nM tPA + 2 µM KD1TM, whole blood",[3],3530 dyn/cm^2
same,"TEG G, 2 nM tPA + 4 µM KD1TM, whole blood",[3],4010 dyn/cm^2
same,"TEG LY30, 2 nM tPA + 2 µM KD1TM, whole blood",[3],0.1%
same,"TEG LY30, 2 nM tPA + 4 µM KD1TM, whole blood",[3],0%
same,"TEG LY60, 2 nM tPA + 2 µM KD1TM, whole blood",[3],3.7%
same,"TEG LY60, 2 nM tPA + 4 µM KD1TM, whole blood",[3],1.7%
same,"TEG MA, 2 nM tPA + 2 µM KD1TM, whole blood",[3],41.4 mm
same,"TEG MA, 2 nM tPA + 4 µM KD1TM, whole blood",[3],44.5 mm
same,IC50 (read off the curve),[4],~1 nM
same,Ki,[5],0.14 nM
same,Kd,[6],40 nM
same,Ki,[7],0.15 nM
same,Ki,[8],0.15 nM
same,Ki,[9],0.15 nM
same,Ki,[10],0.14 nM
same,Ki,[11],0.15 nM
same,Ki,[12],0.15 nM
same,Ki,[13],> 20 µM
same,Ki,[14],0.13 nM
same,Ki,[15],0.14 nM
same,Ki,[16],0.05 nM
same,fold weaker inhibition than the Y11T/L17R double mutant,[17],≥ 10 fold
same,fold weaker inhibition than the Y11T/L17R double mutant,[18],≥ 10 fold
same,fold weaker inhibition than the Y11T/L17R double mutant,[19],≥ 10 fold
same,Ki,[20],0.14 nM
same,Ki,[21],0.15 nM
same,Ki,[22],0.14 nM
same,Ki,[23],0.15 nM
same,Ki,[24],0.15 nM
same,Ki,[25],0.14 nM
same,Ki,[26],0.15 nM
same,Ki,[27],0.14 nM
same,Ki,[28],0.15 nM
same,Ki,[29],0.14 nM
same,Ki,[30],0.15 nM
